Our source for the EC50, IC50 and Kd values is patent US20220031842A1 (JIANGSU HENGRUI MEDICINE, published 2022).

For test [1], the target named is T1, Fusion protein of LAG-3 extracellular region and mIgG2a Fc (human).
T1 construct: Limits of the signal peptide are marked only by lost underlining; also called LAG-3-mFc; LAG-3-mFc fusion protein
T1 chain: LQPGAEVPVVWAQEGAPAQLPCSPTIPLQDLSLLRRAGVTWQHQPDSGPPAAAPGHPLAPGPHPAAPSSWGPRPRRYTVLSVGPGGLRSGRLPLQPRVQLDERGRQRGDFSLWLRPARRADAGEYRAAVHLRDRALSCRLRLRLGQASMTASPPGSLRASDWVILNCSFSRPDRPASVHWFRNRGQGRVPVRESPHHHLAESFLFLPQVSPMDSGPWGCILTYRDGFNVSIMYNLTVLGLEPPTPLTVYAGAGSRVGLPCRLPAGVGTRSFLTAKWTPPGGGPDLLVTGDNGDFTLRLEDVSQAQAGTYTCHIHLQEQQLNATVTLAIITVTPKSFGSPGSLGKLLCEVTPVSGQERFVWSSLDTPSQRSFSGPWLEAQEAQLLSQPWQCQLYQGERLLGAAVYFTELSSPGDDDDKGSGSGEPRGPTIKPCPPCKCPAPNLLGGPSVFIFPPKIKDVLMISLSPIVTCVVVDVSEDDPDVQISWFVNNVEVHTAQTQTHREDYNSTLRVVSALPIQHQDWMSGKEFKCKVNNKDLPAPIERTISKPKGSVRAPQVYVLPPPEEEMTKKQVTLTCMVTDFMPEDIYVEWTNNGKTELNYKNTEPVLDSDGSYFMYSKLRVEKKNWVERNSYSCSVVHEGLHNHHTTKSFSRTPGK
Kind of test: ELISA, LAG-3-mFc captured by anti-mouse Fc on plate (which fusion: inferred). An excerpt:
The binding ability of anti-LAG-3 antibody to human LAG-3 protein was detected by ELISA assay. LAG-3 fusion protein with Fc or mFc tag was immobilized into 96-well microtiter plate by binding to anti-Fc or anti-mFc antibody coated on the microtiter plate, the strength of the signal after the addition of the antibody was used to determine the binding activity of the antibody to LAG-3, the specific experimental method is as follows.
The goat anti-human Fc antibody (Jackson Immuno Research, Cat No. 109-005-008) or goat anti-mouse Fc antibody (Sigma, Cat No. M3534-1ML) was diluted to a concentration of 2 μg/ml with PBS buffer at pH 7.4 (Sigma, Cat No. P4417-100TAB), and added to a 96-well plate at a volume of 50 μl/well and then, the plate was incubated in the incubator at 37° C. for 2 hours. After discarding the liquid, the plates were blocked with 200 μl/well of blocking solution containing 5% skim milk (Bright Dairy, skim milk powder) in PBS, and incubated in the incubator at 37° C. for 2.5 hours or overnight at 4° C. (16-18 hours). After blocking, the blocking solution was discarded and the plate was washed 5 times with PBST buffer (PH7.4 PBS containing 0.05% tween-20). LAG-3-Fc fusion protein (SEQ ID NO:3, produced in-house) or LAG-3-mFc fusion protein (SEQ ID NO: 4, produced in-house) was diluted with sample diluent (PH7.4 PBS containing 1% BSA) to 1 μg/ml and was added to each well, 50 μl/well. Then the plate was incubated in the incubator at 37° C. for 1 h or overnight at 4° C. After incubation, the reaction solution in the plate was discarded, and the plate was washed with PBST for 6 times, and then was added with 50 μl/well of various concentrations of antibodies to be tested (hybridoma purified antibody or humanized antibody) which have been diluted with sample diluent, and the plate was incubated at 37° C. for 1 h. The plates was washed 5 times with PBST after incubation, and was added with 100 μl/well of goat anti-mouse (Jackson Immuno Research, Cat No. 115-035-003) or goat anti-human secondary antibody (Jackson Immuno Research, Cat No. 109-035-003) labeled with HRP, diluted in sample diluent, and the plate was incubated at 37° C. for 1 h.

The target in test [2] is T2, Fusion protein of LAG-3 extracellular region and hIgG1 Fc (human).
T2 construct: Limits of the signal peptide are marked only by lost underlining; also called LAG-3-Fc; LAG-3-Fc fusion protein
T2 sequence (chain, as listed by the source limits assumed): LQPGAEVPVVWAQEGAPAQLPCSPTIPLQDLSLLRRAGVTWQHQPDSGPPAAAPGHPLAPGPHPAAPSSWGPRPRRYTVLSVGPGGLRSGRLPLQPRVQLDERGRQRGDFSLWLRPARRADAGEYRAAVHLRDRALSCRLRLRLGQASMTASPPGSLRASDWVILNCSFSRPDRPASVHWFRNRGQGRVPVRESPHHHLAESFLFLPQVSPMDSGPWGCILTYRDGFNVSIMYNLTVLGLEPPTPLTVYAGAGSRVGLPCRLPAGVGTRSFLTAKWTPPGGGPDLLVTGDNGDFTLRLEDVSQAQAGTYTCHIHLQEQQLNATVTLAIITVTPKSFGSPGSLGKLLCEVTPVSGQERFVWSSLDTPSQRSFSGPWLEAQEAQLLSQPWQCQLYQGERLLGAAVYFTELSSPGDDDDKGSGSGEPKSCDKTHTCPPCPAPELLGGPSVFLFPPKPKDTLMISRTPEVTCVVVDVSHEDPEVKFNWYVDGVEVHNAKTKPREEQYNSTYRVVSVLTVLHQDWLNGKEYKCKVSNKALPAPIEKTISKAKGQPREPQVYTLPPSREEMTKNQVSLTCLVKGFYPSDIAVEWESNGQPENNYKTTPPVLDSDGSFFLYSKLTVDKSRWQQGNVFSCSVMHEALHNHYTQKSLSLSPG
Kind of test: competition: biotin-LAG-3-Fc binding to fixed Daudi cells, antibody titrated. How it is done: Daudi cells (human leukemia cells, purchased from the cell bank in Chinese Academy of Sciences) were seeded in 96-well plate with a density of 3×10⁵/well. After centrifugation at 1000 rpm, the supernatant was discarded and then the plate was fixed with 4% PFA for 30 min at room temperature. The plate was washed 4 times with PBS after discarding the fixed solution, and the plate was blocked with 200 μl/well of blocking solution containing 5% skim milk (Bright Dairy, skim milk powder) diluted in PBS, and incubated at 37° C. for 2.5 hours. After blocking, the blocking solution was discarded and the plate was washed 5 times with PBST buffer (pH7.4 PBS containing 0.05% tween-20), added with 50 μl/well mixture of biotin-labeled (Biotin labeling kit, Dojindo Chemical, Cat No. LK03) LAG-3-Fc fusion protein (produced in-house, SEQ ID NO: 3) and gradient concentrations of the antibody to be tested, wherein the biotin-labeled LAG-3-Fc fusion protein has been diluted with sample diluent (PH7.4 PBS containing 1% BSA) at a final concentration of 0.4 μg/ml, and pre-mixed for an hour, then the plate was incubated at 37° C. for 1 h. The reaction solution was discarded and the plate was washed 5 times with PBST after incubation, 50 μl/well of HRP-labeled Streptavidin (Sigma, Cat No. 52438) diluted with sample diluent was added, and the plate was incubated at 37° C. for 1 h. After washing the plate 5 times with PBST, 50 μl/well of TMB chromogenic substrate (KPL, Cat No. 52-00-03) was added to each well, and incubated at room temperature for 5-15 min, the reaction was stopped by the addition of 50 μl 1M H₂SO₄ to each well. The OD value at a wavelength of 450 nm was read on NOVOStar microplate reader, and then the activity of the LAG-3 antibody in blocking the binding of the antigen to Daudi cells was calculated.

Test [3] concerns the target T3, LAG-3 extracellular domain with a Flag tag (human, UniProt P18627 23-434).
T3 construct: also called LAG-3-Flag; LAG-3-Flag antigen
T3 sequence: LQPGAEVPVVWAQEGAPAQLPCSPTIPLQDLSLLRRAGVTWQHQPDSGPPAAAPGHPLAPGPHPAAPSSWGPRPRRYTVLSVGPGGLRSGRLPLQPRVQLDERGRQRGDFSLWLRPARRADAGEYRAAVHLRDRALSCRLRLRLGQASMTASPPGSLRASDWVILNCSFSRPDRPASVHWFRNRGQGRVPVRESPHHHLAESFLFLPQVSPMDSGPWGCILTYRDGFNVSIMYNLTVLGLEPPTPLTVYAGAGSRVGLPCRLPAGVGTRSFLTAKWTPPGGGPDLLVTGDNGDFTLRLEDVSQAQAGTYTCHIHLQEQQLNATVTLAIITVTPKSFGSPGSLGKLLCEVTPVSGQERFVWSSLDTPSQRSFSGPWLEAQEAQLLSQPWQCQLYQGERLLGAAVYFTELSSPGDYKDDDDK
Put plainly: SPR (Biacore), antibody captured on anti-human capture chip, LAG-3-Flag in flow. An excerpt: 2. […] Then, the LAG-3-Flag antigen (produced in-house, SEQ ID NO:1) was flowed through the surface of the biochip, and the reaction signal was detected real time using a Biacore instrument to obtain the binding and dissociation curves, the value of affinity was obtained by fitting, see table 10 below. After each cycle of dissociation was finished in the experiment, the biochip was washed and regenerated with a regeneration solution provided in the human anti-capture kit.
A general note: SPR reads the build-up and loss of mass on a sensor chip optically.

Where a chain is given by its changes, count along the chain named.

B1: Hu303-004 (antibody, human IgG4 S228P, kappa, V domains shown)
VH: QVQLVQSGAEVKKPGASVKVSCKASGYTFTDYYMNWVRQAPGQRLEWMGVINPYNGDTAYNQKFKGRVTITRDTSASTAYMELSSLRSEDTAVYYCARDDGYYDYYFDVWGQGTTVTVSS
VL: DIQMTQSPSSLSASVGDRVTITCRASQDIGSRLNWYQQKPGKAPKLLIYATSTLDSGVPSRFSGSGSGTDFTLTISSLQPEDFATYYCLQLASSPPTFGGGTKVEIKR
notes: Humanized mAb303
In turn, B1 registered a half-maximal effective concentration (EC50) in test [1] of 278 pM. In test [2], this molecule gave an IC50 of 502 pM. Binding in test [3] was put at a Kd of 1060 pM.

B2: Hu303-010 (antibody, human IgG4 S228P, kappa, V domains shown)
VH: B1 VH with R72V, T74K, A97T
VL: B1 VL with L46R, G66R
notes: Humanized mAb303
B2 registered an EC50 in test [1] of 137 pM. The half-maximal inhibitory concentration (IC50) in test [2] was determined as 346 pM. In test [3], the Kd is 147 pM.

B3: Hu303-006 (antibody, human IgG4 S228P, kappa, V domains shown)
VH: B1 VH
VL: B1 VL with L46R, S60K, G66R
notes: Humanized mAb303
In turn, B3 gave an EC50 in test [1] of 288 pM. The molecule further yielded an IC50 in test [2] of 821 pM. Further, the affinity in test [3], expressed as Kd, was 75.3 pM.

B4: Hu303-016 (antibody, human IgG4 S228P, kappa, V domains shown)
VH: B1 VH with F29L, R72V, T74K, A97T
VL: B1 VL with L46R, S60K, G66R
notes: Humanized mAb303
B4 came in with an EC50 in test [1] of 161 pM. The IC50 in test [2] worked out at 395 pM. The same molecule had a Kd in test [3] of 74.8 pM.

B5: Hu303-009 (antibody, human IgG4 S228P, kappa, V domains shown)
VH: B1 VH with R72V, T74K, A97T
VL: B1 VL
notes: Humanized mAb303
As to B5, in test [1], the EC50 is 316 pM. In test [2], this molecule registered an IC50 of 417 pM. Also, the Kd in test [3] was found to be 943 pM.

B6: Hu303-005 (antibody, human IgG4 S228P, kappa, V domains shown)
VH: B1 VH
VL: B1 VL with L46R, G66R
notes: also called LAG-3 antibody Hu303-005; LAG3 antibody Hu303-005
For the molecule B6, the concentration giving a half-maximal response (EC50) in test [1] amounted to 309 pM. This molecule came in with an IC50 in test [2] of 622 pM. This molecule gave a Kd in test [3] of 71.5 pM.

B7: Hu303-014 (antibody, human IgG4 S228P, kappa, V domains shown)
VH: B1 VH with F29L, R72V, T74K, A97T
VL: B1 VL
notes: Humanized mAb303
As for B7, the concentration giving a half-maximal response (EC50) in test [1] came to 232 pM. Further, in test [2], the IC50 turned out to be 467 pM. Besides, the equilibrium dissociation constant (Kd) in test [3] amounted to 491 pM.

B8: Hu229-014 (antibody, human IgG4 S228P, kappa, V domains shown)
VH: QVQLVQSGSELKKPGASVKVSCKASGYTFTTSGMSWVKQAPGQGLKWMGWINTYSGVPTYADDFKGRFVFSLDTSVSTAYLQISSLKAEDTATYYCARDNYDARDVYYYAMDYWGQGTTVTVSS
VL: DIQMTQSPSSLSASVGDRVTITCRASENIYSNLAWYQQKPGKAPKLLVYAATNLADGVPSRFSGSGSGTQYTLTISSLQPEDFATYYCQHFWITPWTFGGGTKVEIKR
notes: Humanized mAb229
Turning to B8, in test [1], the EC50 came to 153 pM. This molecule also gave an IC50 in test [2] of 718 pM. Besides, binding in test [3] was put at a Kd of 37.4 pM.

B9: Hu229-013 (antibody, human IgG4 S228P, kappa, V domains shown)
VH: B8 VH
VL: B8 VL with Q70D
notes: also called LAG-3 antibody Hu229-013; LAG3 antibody Hu229-013
Turning to B9, it took 106 pM to reach a half-maximal effect in test [1] (EC50). This molecule returned an IC50 in test [2] of 390 pM. Moreover, binding in test [3] was characterised by a dissociation constant (Kd) of 28.1 pM.

B10: Hu229-015 (antibody, human IgG4 S228P, kappa, V domains shown)
VH: B8 VH
VL: B8 VL with A43S
notes: Humanized mAb229
Regarding B10, the EC50 in test [1] was found to be 156 pM. The IC50 in test [2] turned out to be 808 pM. Also, the Kd in test [3] was 45.9 pM.

B11: Hu229-017 (antibody, human IgG4 S228P, kappa, V domains shown)
VH: B8 VH with Y95F
VL: B8 VL with Q70D
notes: Humanized mAb229
B11 registered an EC50 in test [1] of 48 pM. Also, in test [2], the IC50 came out at 239 pM. Moreover, the equilibrium dissociation constant (Kd) in test [3] came to 67.1 pM.

B12: Hu229-010 (antibody, human IgG4 S228P, kappa, V domains shown)
VH: B8 VH with K38R, T93V
VL: B8 VL
notes: Humanized mAb229
Turning to B12, in test [1], it took 174 pM to reach a half-maximal effect (EC50). Moreover, the half-inhibitory concentration (IC50) in test [2] came to 453 pM. Besides, the dissociation constant (Kd) in test [3] is 38.2 pM.

B13: Hu229-019 (antibody, human IgG4 S228P, kappa, V domains shown)
VH: B8 VH with Y95F
VL: B8 VL with A43S
notes: Humanized mAb229
As to B13, the EC50 in test [1] came to 68 pM. This molecule registered a 50% inhibitory concentration (IC50) in test [2] of 289 pM. The molecule further had a Kd in test [3] of 72.9 pM.

B14: Hu229-009 (antibody, human IgG4 S228P, kappa, V domains shown)
VH: B8 VH with K38R, T93V
VL: B8 VL with Q70D
notes: Humanized mAb229
Turning to B14, the EC50 in test [1] was 152 pM. In test [2], this molecule returned an IC50 of 559 pM. Further, the dissociation constant Kd in test [3] amounted to 48.8 pM.

A word on the EC50: it is the concentration at which the effect is half-maximal. A word on the IC50: it is the concentration that gives 50% inhibition. Read a low IC50 as higher potency. What is called Kd is the constant that tells how readily two partners part at equilibrium. High values mean a looser complex, low ones a tighter complex.
